According to paper PMC7072583, “Intracellular Delivery of DNA and Protein by a Novel Cell-Permeable Peptide Derived from DOT1L” (Biomolecules, 2020):
Ends that are not written are not given here. * marks the point of attachment. FITC = O=C1OC2(c3ccc(O)cc3Oc3cc(O)ccc32)c2ccc(NC(=S)*)cc21; Acp = not defined here

Experiments:
MCF7 cells [1] = format: cell-based, human
Protocol: (§1) All types of cells were suspended in 0.5 mL media and seeded at a density of 1.5 × 10^5 cells/well on a 24-well plate for 24 h. After washing with PBS twice, the indicated cells were incubated with indicated concentrations of FITC-CPP-Dot1l, FITC-NCO peptides, or purified protein in 0.5 mL serum-free media/well for 1 h. After incubation, cells were rinsed three times in PBS and then imaged by fluorescence microscopy (Nikon, Tokyo, Japan). To evaluate the cellular uptake efficiency of indicated treatment, the cellular uptake of indicated concentration of CPP was quantified with multimode spectrophotometry (Tecan, Mannedorf, Switzerland). The incubation and wash procedure were the same as above. Cells were then lysed with 0.3 mL/well lysing buffer (0.1 M NaOH) for 10 min and centrifuged at 14,000 rpm for 5 min. The fluorescence intensity in the supernatant was read using Multimode spectrophotometry (Tecan, Mannedorf, Switzerland) at 485 nm excitation and emission at 535 nm. Protein concentration of supernatant was examined by the Bradford protein assay kit following the manufacturer’s recommendation. The fluorescence of cellular uptake is expressed as fluorescence intensity per mg of total cellular protein. Experiments indicated in the text were repeated at least three times.

[2] = tested on: MCF7, B16, HSC-T6, Caski, and HepG2; assay: Cellular uptake of FITC-labeled Dot1l peptide in different cell lines; format: cell-based, human, mouse, rat
Protocol: as §1

MCF7 and HSC-T6 cells = assay: Comparison of penetration efficiency of different CPPs; format: cell-based, human, rat; conditions: Supplementary Figure S2D
Protocol: as §1

MCF7 cells [3] = assay: Uptake mechanism: temperature and endocytosis inhibitors; format: cell-based, human
Protocol: as §1
The uptake mechanism of Dot1l in MCF7 cells was examined through endocytosis inhibitors. Peptide incubation at indicated different temperatures was measured to investigate the influence of temperature on peptide internalization (physical means of inhibition of endocytosis). […] The uptake efficiency was detected using the same protocol as the one shown above.

HSC-T6 cells [4] = assay: MTT cytotoxicity assay; format: cell-based, rat; conditions: HSC-T6, range of peptide concentrations, 24 h and 48 h, n = 3, p > 0.05
Protocol: (§2) HSC-T6 and MCF7 cells were seeded at a density of 8000 cells/well in 96-well culture plates overnight before incubation. The cells were washed with PBS and were treated with Dot1l or Dot1l/pDNA complexes of different concentrations at the indicated times. After rinsing with PBS, 20 μL of 5 mg/mL MTT in PBS solution were added to 80 μL of serum-free media and incubated for 4 h. After that, the culture medium was discarded and 150 μL of dimethyl sulfoxide (DMSO) were added into each well to dissolve the formazan crystals. The absorbance of DMSO-dissolved solution was read in a Multiskan Spectrum (Thermo Fisher Scientific, Waltham, MA, USA) reader at 490 nm.

MCF7 cells [5] = assay: MTT cytotoxicity assay; format: cell-based, human; conditions: MCF7, range of peptide concentrations, 24 h and 48 h, n = 3, p > 0.05
Protocol: as §2

red blood cells (RBC) = assay: Hemolysis assay; format: cell-based; conditions: 2.5-10 µM, 2 h, absorbance 450 nm, 0.1% Triton X-100 positive control, n = 3, p > 0.05 vs NC
Protocol: To examine the membrane integrity, red blood cells (RBC) were used to conduct hemolytic analysis. After separation of RBCs by centrifugation for 10 min at 500 rpm, RBCs were collected and carefully washed with PBS. A 20% v/v RBC suspension was used for further experiments. In a typical experiment, 25 μL of RBC suspension were added to 225 μL peptide dilutions at different concentrations. Following 2 h of incubation, samples were centrifuged (500 rpm, 5 min) to discard cells and the membrane fragment. Supernatant samples (50-μL aliquots) were transferred to a clear 96-well plate and hemoglobin absorbance was read at 450 nm. Experimental design contains negative controls and positive controls (RBCs treated with 0.1% Triton X-100).

HSC-T6 cells [6] = assay: Lactate dehydrogenase leakage assay; format: cell-based, rat; conditions: HSC-T6, 2.5-10 µM, 1 h, 0.1% TritonX-100 positive control, n = 3, p > 0.05 vs NC
Protocol: (§3) Lactate dehydrogenase (LDH) assay was conducted to measure the release of lactate dehydrogenase from damaged cells. Cells were seeded at a density of 1.5 × 10^5 cells/well to 24-well plates for overnight culture and peptides at indicated concentrations were added as described above. After 1 h incubation, 50 μL of cell-free supernatant were collected and added to each well, including controls and cell-free wells filled with 50 μL of LDH assay buffer. Reaction was conducted at room temperature (RT) for 10 min according to the manufacturer’s recommendations and the Optical Density (OD) was read in a Multiskan Spectrum (Thermo Fisher Scientific) plate reader at 570 nm.

MCF7 cells [7] = assay: Lactate dehydrogenase leakage assay; format: cell-based, human; conditions: MCF7, different concentrations, 1 h; Supplementary Figure S4A
Protocol: as §3

[8] = Flow cytometry analysis of cell cycle and cell apoptosis; format: cell-based; conditions: 10 μM peptide
Protocol: Cells and Dot1l peptide (10 μM), following the same method as described before, were plated with treatment in a six-well plate format. Cells were then harvested and pelleted in washing steps with PBS three times by centrifuging for 5 min at 1023 rpm. The supernatant was removed, and cells were resuspended in PBS. Cells were then fixed in 70% cold ethanol in PBS for 30 min. After washing three times with PBS, the fixed cells were stained with 0.5 mL PI/RNase A solution or with the Annexin-V/PI Apoptosis Detection Kit (Elabscience, Wuhan, China), following the recommended methods. Quantification of cell cycle states or cell apoptosis was acquired by fluorescence of each sample in BD FACSVerse™ flow cytometer.

Substance: FITC-(Acp)-KARKKKLNKKGRKMAGRKRGRPKK ({FITC-Acp}-KARKKKLNKKGRKMAGRKRGRPKK; reading uncertain) [Dot1l, FITC-labeled 24-residue arginine-rich cell-penetrating peptide derived from human Dot1l protein]
- Fluorescence signal after trypan blue quenching of cell periphery signal (MCF7 cells [1]): the fluorescence signal persisted
- Intracellular fluorescence signal with 5% DMSO pretreatment (MCF7 cells [1]): highly increased
- Penetration efficiency with longer incubation time (MCF7 cells [1]): not promoted
- Penetration in different cell lines after 5% DMSO pretreatment ([2]; 5% DMSO pretreatment, Supplementary Figure S1C): significantly increased
- Penetration in different cell lines ([2]; MCF7, B16, HSC-T6, Caski, HepG2, non-DMSO pretreatment condition): could penetrate into all different cell lines efficiently without apparent cell line specificity
- Penetration efficiency compared with other CPPs (MCF7 and HSC-T6 cells): weaker than hPP10, but significantly higher than that of TAT and MT23
- Internalization with wartmannin compared with control (MCF7 cells [3]; MCF7, 5 μM wartmannin (PI-3 kinase blocking agent)): no significant differences
- Internalization with sodium azide (MCF7 cells [3]; MCF7, 40 µM sodium azide (oxidative phosphorylation inhibitor)): not blocked
- Uptake with heparin (MCF7 cells [3]; MCF7, 50 μg/mL heparin (HSPG competitor)): could not block Dot1l uptake efficiently
- Internalization with MβCD compared with control (MCF7 cells [3]; MCF7, 5 mM MβCD (lipid raft-mediated endocytosis inhibitor)): no significant differences
- Internalization with ammonium chloride (MCF7 cells [3]; MCF7, 50 mM ammonium chloride (anti-acidification agent of endocytic vesicles)): not blocked
- Internalization with hyperosmotic sucrose compared with control (MCF7 cells [3]; MCF7, 450 mM sucrose (clathrin-dependent endocytosis inhibitor)): no significant differences
- Fluorescence intensity at 37 °C compared with 4 °C (MCF7 cells [3]; MCF7, means ± SEM (n = 3)): no apparent differences
- Fluorescence intensity at 37 °C compared with 25 °C (MCF7 cells [3]; MCF7, means ± SEM (n = 3)): significantly higher
- Internalization in the presence of serum containing incubation medium (MCF7 cells [3]; MCF7, serum (10% FBS)): blocked
- Inhibition of cell growth (MTT) (HSC-T6 cells [4]): no significant inhibition
- Inhibition of cell growth (MTT) (MCF7 cells [5]): no significant inhibition
- Membrane disturbance (hemolysis) (red blood cells (RBC)): no membrane disturbance
- Membrane disturbance (LDH release) (HSC-T6 cells [6]): no membrane disturbance
- Membrane disturbance (LDH release) (MCF7 cells [7]): no membrane disturbance
- Cell apoptosis, control vs peptide treatment ([8]; Annexin-V/PI): did not show significant differences
- Cell cycle, control vs peptide treatment ([8]; PI/RNase A staining): did not show significant differences
